Laboratory results from patent US20210130436A1 (published 2021).
Positions count from the first letter of the chain named. Names and notes keep the numbering of the source.

B1: WT CD80 ECD-Fc (Abcam) (Fc fusion, UniProt P33681 35-242, looked up)
chain: VIHVTKEVKEVATLSCGHNVSVEELAQTRIYWQKEKKMVLTMMSGDMNIWPEYKNRTIFDITNNLSIVILALRPSDEGTYECVVLKYEKDAFKREHLAEVTLSVKADFPTPSISDFEIPTSNIRRIICSTSGGFPEPHLSWLENGEELNAINTTVSQDPETELYAVSSKLDFNMTTNHSFMCLIKYGHLRVNQTFNWNTTKQEHFPDN
notes: extracellular domain; not shown: Fc of the bought product, not described
B2: CD80 E35D/M47V/N48K/V68M/K89N IgV-Fc (Fc fusion, not shown: small tags and cut ends; a dimerising Fc or GST)
chain: VIHVTKEVKEVATLSCGHNVSVEELAQTRIYWQKDKKMVLTMMSGDVKIWPEYKNRTIFDITNNLSIMILALRPSDEGTYECVVLKYENDAFKREHLAEVTLSVKAD
B3: CD80 E35D/D46V/M47V/V68M/K89N IgV-Fc (Fc fusion, not shown: small tags and cut ends; a dimerising Fc or GST)
chain: B2 chain with D46V, K48N
B4: CD80 E35D/M47V/K89N IgV-Fc (Fc fusion, not shown: small tags and cut ends; a dimerising Fc or GST)
chain: B2 chain with K48N, M68V
B5: CD80 N48K/K89N IgV-Fc (Fc fusion, not shown: small tags and cut ends; a dimerising Fc or GST)
chain: B2 chain with D35E, V47M, M68V
B6: CD80 E35D/N48K/V68M/K89N IgV-Fc (Fc fusion, not shown: small tags and cut ends; a dimerising Fc or GST)
chain: B2 chain with V47M
B7: CD80 M47V/V68M/K89N IgV-Fc (Fc fusion, not shown: small tags and cut ends; a dimerising Fc or GST)
chain: B2 chain with D35E, K48N
B8: CD80 E35D/N48K/V68M IgV-Fc (Fc fusion, not shown: small tags and cut ends; a dimerising Fc or GST)
chain: B2 chain with V47M, N89K
B9: variant CD80 IgV-Fc Q27H/E35D/M47I (Fc fusion, not shown: a dimerising Fc or GST)
chain: B2 chain with Q27H, V47I, K48N, M68V, N89K
B10: variant CD80 IgV-Fc V22A/E35D/M47L/A71G (Fc fusion, not shown: a dimerising Fc or GST)
chain: B2 chain with V22A, V47L, K48N, M68V, A71G, N89K
B11: variant CD80 IgV-Fc Q27L/E35D/M47V/I61V/L85M (Fc fusion, not shown: a dimerising Fc or GST)
chain: B2 chain with Q27L, K48N, I61V, M68V, L85M, N89K
B12: variant CD80 IgV-Fc (inert) H18V/E35D/M47V/V68M/A71G/D90G (Fc fusion)
chain: B2 chain with H18V, K48N, A71G, N89K, D90G
notes: not shown: inert human IgG1 Fc
B13: variant CD80 IgV-Fc (inert) H18F/A26N/E35D/M47V/V68M/A71G/D90K (Fc fusion)
chain: B2 chain with H18F, A26N, K48N, A71G, N89K, D90K
notes: as for B12
B14: variant CD80 IgV-Fc (inert) H18F/A26D/E35D/D46E/M47T/V68M/A71G/D90G (Fc fusion)
chain: B2 chain with H18F, A26D, D46E, V47T, K48N, A71G, N89K, D90G
notes: as for B12
B15: variant CD80 IgV-Fc (inert) H18C/A26P/E35D/M47L/V68M/A71G (Fc fusion)
chain: B2 chain with H18C, A26P, V47L, K48N, A71G, N89K
notes: as for B12
B16: variant CD80 IgV-Fc (inert) H18I/A26P/E35D/M47V/V68M/A71G (Fc fusion)
chain: B2 chain with H18I, A26P, K48N, A71G, N89K
notes: as for B12
B17: variant CD80 IgV-Fc E35D/M47V/V68M/L85M/Y87D (Fc fusion, not shown: small tags and cut ends; a dimerising Fc or GST)
chain: B2 chain with K48N, L85M, Y87D, N89K
B18: variant CD80 IgV-Fc Q33L/E35D/M47V/T62S/V68M/L85M (Fc fusion, not shown: small tags and cut ends; a dimerising Fc or GST)
chain: B2 chain with Q33L, K48N, T62S, L85M, N89K
B19: variant CD80 IgV-Fc E35D/D46E/M47I/T62A/V68M/L85M/Y87C (Fc fusion, not shown: small tags and cut ends; a dimerising Fc or GST)
chain: B2 chain with D46E, V47I, K48N, T62A, L85M, Y87C, N89K
B20: variant CD80 IgV-Fc E35D/D46E/M47V/V68M/L85Q (Fc fusion, not shown: small tags and cut ends; a dimerising Fc or GST)
chain: B2 chain with D46E, K48N, L85Q, N89K
B21: variant CD80 IgV-Fc R29C/E35D/M47L/V68M/A71G/L85M (Fc fusion, not shown: small tags and cut ends; a dimerising Fc or GST)
chain: B2 chain with R29C, V47L, K48N, A71G, L85M, N89K

Target: T1, CD28 endogenously expressed on Jurkat/IL2 reporter cells (human, UniProt P10747 19-220)
T1 construct: whole, on cells; Target on Jurkat cells; also called Jurkats (CD28)
Experiment: flow cytometry, Jurkat cells (CD28), Fc fusion at 33.3 nM

In order of falling “MFI at 33.3 nM” value:
1. B3  2120 MFI
2. B6  1530 MFI
3. B2  1350 MFI
4. B7  1320 MFI
5. B1  709 MFI
6. B8  642 MFI
7. B4  507 MFI
8. B5  170 MFI

Target: T2, CD28 on Jurkat/IL2 reporter cells (human, UniProt P10747 19-220)
T2 construct: whole, on cells; Endogenous CD28 of Jurkat cells; also called Jurkats (CD28)
Experiment: flow cytometry, Jurkat cells (CD28); MFI relative to WT CD80

In order of rising “Fold change to WT CD80” value:
1. B11  3.5 fold
2. B9  11.5 fold
3. B10  15 fold

Target: T3, human PD-L1 on CHO cells (human, UniProt Q9NZQ7 19-290)
T3 construct: whole, on cells; CHO cells stably expressing PD-L1; also called huPD-L1
T3 sequence (Q9NZQ7 19-290): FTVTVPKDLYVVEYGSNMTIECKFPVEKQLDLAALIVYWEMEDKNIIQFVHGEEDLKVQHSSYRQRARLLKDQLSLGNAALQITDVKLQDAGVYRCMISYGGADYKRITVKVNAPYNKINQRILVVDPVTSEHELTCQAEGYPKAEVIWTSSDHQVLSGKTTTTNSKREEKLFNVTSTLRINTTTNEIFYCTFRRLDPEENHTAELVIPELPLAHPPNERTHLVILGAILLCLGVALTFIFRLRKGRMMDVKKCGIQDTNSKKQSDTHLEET
Experiment: flow cytometry, CHO/PD-L1 cells; MFI relative to WT CD80

In order of falling “Fold change to WT CD80” value:
1. B10  116 fold
2. B9  48.7 fold
3. B11  38.5 fold

Target: T4, human PD-L1 (human, UniProt Q9NZQ7 19-290)
T4 construct: whole, on cells; CHO cells stably expressing huPD-L1; also called huPD-L1
T4 sequence (Q9NZQ7 19-290): as above
Experiment: flow cytometry, MFI on CHO/huPD-L1 cells divided by MFI on Jurkat cells (CD28), 33.3 nM

In order of falling “Ratio of PDL1:CD28” value:
1. B15  35.2 ratio
2. B16  25.2 ratio
3. B12  20.6 ratio
4. B13  7.1 ratio
5. B14  4.6 ratio

Target: T2, CD28 on Jurkat/IL2 reporter cells
Experiment: flow cytometry, Jurkat cells (CD28)

In order of rising “MFI at 33.3 nM” value:
1. B11  230 MFI
2. B9  756 MFI
3. B10  990 MFI

Target: T5, human CTLA4 (huCTLA4), full-length, stably expressed on CHO cells (human, UniProt P16410 36-223)
T5 construct: whole, on cells
T5 sequence (P16410 36-223): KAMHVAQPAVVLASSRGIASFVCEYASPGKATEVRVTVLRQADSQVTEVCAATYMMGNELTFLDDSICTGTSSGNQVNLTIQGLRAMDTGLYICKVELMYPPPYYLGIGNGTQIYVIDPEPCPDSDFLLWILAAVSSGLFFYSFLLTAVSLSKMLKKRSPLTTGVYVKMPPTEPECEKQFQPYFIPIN
Experiment: flow cytometry, CHO cells expressing huCTLA4

In order of falling “MFI at 33.3 nM” value:
1. B19  17000 MFI
2. B20  15500 MFI
3. B17  13900 MFI
4. B21  91 MFI
5. B18  86 MFI

Target: T6, human CTLA-4 (human, UniProt P16410 36-223)
T6 construct: whole, on cells; CHO cells stably expressing huCTLA4; also called huCTLA4
T6 sequence (P16410 36-223): as above
Experiment: flow cytometry, CHO cells stably expressing huCTLA-4, 33.3 nM Fc fusion, PE anti-human Fc

In order of rising “MFI at 33.3 nM” value:
1. B13  15200 MFI
2. B12  16800 MFI
3. B14  17200 MFI
4. B16  21900 MFI
5. B15  23400 MFI

Target: T7, human PD-L1 expressed on CHO cells (human, UniProt Q9NZQ7 19-290)
T7 construct: whole, on cells; Target on CHO cells stably expressing PD-L1; also called huPD-L1
T7 sequence (Q9NZQ7 19-290): as the sequence (Q9NZQ7 19-290) above
Experiment: flow cytometry, CHO cells stably expressing PD-L1, Fc fusion at 33.3 nM

In order of falling “MFI at 33.3 nM” value:
1. B3  21600 MFI
2. B6  17400 MFI
3. B2  14800 MFI
4. B7  11800 MFI
5. B4  4340 MFI

Target: T6, human CTLA-4
Experiment: flow cytometry MFI relative to WT CD80 IgV-Fc, CHO/huCTLA-4 cells, 33.3 nM

In order of falling “Fold change to WT CD80” value:
1. B15  16.9 fold
2. B16  15.8 fold
3. B14  12.4 fold
4. B12  12.1 fold
5. B13  11 fold

Target: T3, human PD-L1 on CHO cells
Experiment: flow cytometry, CHO cells stably expressing PD-L1

In order of rising “MFI at 33.3 nM” value:
1. B11  2700 MFI
2. B9  3420 MFI
3. B10  8170 MFI

Target: T8, human CD28 (human, UniProt P10747 19-220)
T8 construct: whole, on cells; Jurkat/IL2 reporter cells, which endogenously express CD28
Experiment: flow cytometry MFI relative to WT CD80 IgV-Fc, Jurkat cells (CD28), 33.3 nM

In order of falling “Fold change to WT CD80” value:
1. B14  59.1 fold
2. B13  31.1 fold
3. B16  25.2 fold
4. B12  20.7 fold
5. B15  18.7 fold

Target: T9, human CTLA4 expressed on CHO cells (human, UniProt P16410 36-223)
T9 construct: whole, on cells; Target on CHO cells stably expressing CTLA4; also called huCTLA4
T9 sequence (P16410 36-223): as the sequence (P16410 36-223) above
Experiment: flow cytometry, CHO cells stably expressing CTLA4, Fc fusion at 33.3 nM

In order of falling “MFI at 33.3 nM” value:
1. B4  39300 MFI
2. B8  33600 MFI
3. B7  24800 MFI
4. B2  20900 MFI
5. B5  4370 MFI

Target: T10, human CTLA4 on CHO cells (human, UniProt P16410 36-223)
T10 construct: whole, on cells; CHO cells stably expressing CTLA4; also called huCTLA4
T10 sequence (P16410 36-223): as above
Experiment: flow cytometry, CHO cells stably expressing CTLA4

In order of falling “MFI at 33.3 nM” value:
1. B11  27900 MFI
2. B9  27500 MFI
3. B10  21900 MFI

Target: T4, human PD-L1
Experiment: flow cytometry, CHO cells stably expressing huPD-L1, 33.3 nM Fc fusion, PE anti-human Fc

In order of falling “MFI at 33.3 nM” value:
1. B15  67000 MFI
2. B16  64900 MFI
3. B12  43600 MFI
4. B14  27500 MFI
5. B13  22400 MFI

Target: T3, human PD-L1 on CHO cells
Experiment: flow cytometry; PD-L1 MFI over CD28 MFI

In order of falling “Ratio of PDL1:CD28” value:
1. B11  12 ratio
2. B10  8 ratio
3. B9  5 ratio

Target: T4, human PD-L1
Experiment: flow cytometry MFI relative to WT CD80 IgV-Fc, CHO/huPD-L1 cells, 33.3 nM

In order of falling “Fold change to WT CD80” value:
1. B15  406 fold
2. B16  393 fold
3. B12  264 fold
4. B14  167 fold
5. B13  136 fold

Target: T8, human CD28
Experiment: flow cytometry, Jurkat/IL2 reporter cells (endogenous CD28), 33.3 nM Fc fusion, PE anti-human Fc

In order of rising “MFI at 33.3 nM” value:
1. B15  1910 MFI
2. B12  2120 MFI
3. B16  2570 MFI
4. B13  3170 MFI
5. B14  6030 MFI

Target: T11, human PD-L1 (huPD-L1), full-length, stably expressed on CHO cells (human, UniProt Q9NZQ7 19-290)
T11 construct: whole, on cells
T11 sequence (Q9NZQ7 19-290): as the sequence (Q9NZQ7 19-290) above
Experiment: flow cytometry, CHO cells expressing huPD-L1

In order of falling “MFI at 33.3 nM” value:
1. B17  1720 MFI
2. B20  1720 MFI

Target: T10, human CTLA4 on CHO cells
Experiment: flow cytometry, CHO/CTLA4 cells; MFI relative to WT CD80

In order of rising “Fold change to WT CD80” value:
1. B10  11.4 fold
2. B9  14.4 fold
3. B11  14.6 fold
